Data from patent US12742015 (dated 2026).

T1: OX40 on T cells (human, UniProt P43489)
T1 chain: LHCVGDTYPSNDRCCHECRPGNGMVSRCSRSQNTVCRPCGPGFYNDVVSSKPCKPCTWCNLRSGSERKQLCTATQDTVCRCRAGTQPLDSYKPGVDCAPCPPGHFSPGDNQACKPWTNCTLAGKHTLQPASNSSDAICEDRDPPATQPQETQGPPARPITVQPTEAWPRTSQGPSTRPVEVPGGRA

T2: FcγRIIa 167R (human, UniProt P12318)
T2 chain: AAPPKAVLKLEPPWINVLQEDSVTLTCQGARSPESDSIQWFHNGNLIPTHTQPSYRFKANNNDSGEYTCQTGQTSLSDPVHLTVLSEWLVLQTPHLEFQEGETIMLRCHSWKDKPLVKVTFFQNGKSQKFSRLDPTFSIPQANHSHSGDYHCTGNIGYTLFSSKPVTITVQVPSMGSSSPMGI

T3: FcγRIIb (human, UniProt P31994)
T3 chain: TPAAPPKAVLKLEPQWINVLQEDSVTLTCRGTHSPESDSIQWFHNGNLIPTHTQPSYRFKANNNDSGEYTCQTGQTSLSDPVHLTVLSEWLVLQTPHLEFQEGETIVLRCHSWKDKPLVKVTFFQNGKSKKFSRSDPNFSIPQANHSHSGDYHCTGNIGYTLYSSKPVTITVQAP


Key:
OX40 on T cells [1] = biological target: T1, OX40 on T cells; experiment: other, CD4+ T cells, apparent affinity
OX40 on T cells [2] = biological target: T1, OX40 on T cells; experiment: other, CD8+ T cells, apparent affinity
FcγRIIa 167R = biological target: T2, FcγRIIa 167R; experiment: SPR
FcRn = FcRn (human, UniProt P55899); experiment: SPR, pH 7.4
FcγRIIb = biological target: T3, FcγRIIb; experiment: SPR

Chain of FcRn (P55899 24-297, chain 1 of 2): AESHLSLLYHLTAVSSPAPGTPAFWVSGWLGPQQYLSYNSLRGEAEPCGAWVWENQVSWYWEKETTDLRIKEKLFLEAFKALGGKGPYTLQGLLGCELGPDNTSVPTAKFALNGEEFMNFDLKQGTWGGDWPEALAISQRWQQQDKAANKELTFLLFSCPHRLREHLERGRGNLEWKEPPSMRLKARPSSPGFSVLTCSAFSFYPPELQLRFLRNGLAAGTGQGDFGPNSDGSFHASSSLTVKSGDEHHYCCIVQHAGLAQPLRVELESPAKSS
Chain of FcRn (chain, as listed by the source, chain 2 of 2): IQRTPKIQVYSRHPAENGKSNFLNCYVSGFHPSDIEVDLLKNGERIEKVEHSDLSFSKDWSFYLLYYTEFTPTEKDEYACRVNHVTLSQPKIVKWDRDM

Row | Binder | Kd (OX40 on T cells [1]) [nM] | Kd (OX40 on T cells [2]) [nM] | binding result (FcγRIIa 167R) | binding result (FcRn) | binding result (FcγRIIb)
1 | GBR 830 (OX40 binding) (antibody, V domains shown) VH: QVTLKESGPALVKPTQTLTLTCSFSGFSLSTSGMGVGWIRQPPGKALEWIAHIWWDDDKYYNTALKTRLTISKDTSKNQVVLTMTNMDPVDTATYYCARIDWDGFAYWGQGTLVTVSS VL: EIVLTQSPATLSLSPGERATLSCRASSSVSYMHWYQQKPGQAPRPWIYATSNRATGIPARFSGSGSGTDYTLTISSLEPEDFAVYYCQQWSSNPWTFGQGTKVEIK | 1.25 | 3.46 |  |  | 
2 | MAB10 full (antibody) chain 1: QVTLKESGPALVKPTQTLTLTCSFSGFSLSTSGMGVGWIRQPPGKALEWIAHIWWDDDKYYNTALKTRLTISKDTSKNQVVLTMTNMDPVDTATYYCARIDWDGFAYWGQGTLVTVSSASTKGPSVFPLAPSSKSTSGGTAALGCLVKDYFPEPVTVSWNSGALTSGVHTFPAVLQSSGLYSLSSVVTVPSSSLGTQTYICNVNHKPSNTKVDKKVEPKSCDKTHTCPPCPAPELLGGPSVFLFPPKPKDTLYITREPEVTCVVVDVSHEDPEVKFNWYVDGVEVHNAKTKPREEQYNSTYRVVSVLTVLHQDWLNGKEYKCKVSNKALPAPIEKTISKAKGQPREPQVYTLPPSRDELTKNQVSLTCLVKGFYPSDIAVEWESNGQPENNYKTTPPVLDSDGSFFLYSKLTVDKSRWQQGNVFSCSVMHEALHNHYTQKSLSLSPGK chain 2: EIVLTQSPATLSLSPGERATLSCRASSSVSYMHWYQQKPGQAPRPWIYATSNRATGIPARFSGSGSGTDYTLTISSLEPEDFAVYYCQQFGAWPWTFGQGTKVEIKRTVAAPSVFIFPPSDEQLKSGTASVVCLLNNFYPREAKVQWKVDNALQSGNSQESVTEQDSKDSTYSLSSTLTLSKADYEKHKVYACEVTHQGLSSPVTKSFNRGEC |  |  | no binding | no binding | no binding
3 | MAB1 full (antibody) chain 1: not shown chain 2: EIVLTQSPATLSLSPGERATLSCRASSSVSYMHWYQQKPGQAPRPWIYATSNRATGIPARFSGSGSGTDYTLTISSLEPEDFAVYYCQQFGAWPWTFGQGTKVEIKRTVAAPSVFIFPPSDEQLKSGTASVVCLLNNFYPREAKVQWKVDNALQSGNSQESVTEQDSKDSTYSLSSTLTLSKADYEKHKVYACEVTHQGLSSPVTKSFNRGEC |  |  |  | no binding | 
4 | GBR 830 full (antibody) chain 1: not shown chain 2: EIVLTQSPATLSLSPGERATLSCRASSSVSYMHWYQQKPGQAPRPWIYATSNRATGIPARFSGSGSGTDYTLTISSLEPEDFAVYYCQQWSSNPWTFGQGTKVEIKRTVAAPSVFIFPPSDEQLKSGTASVVCLLNNFYPREAKVQWKVDNALQSGNSQESVTEQDSKDSTYSLSSTLTLSKADYEKHKVYACEVTHQGLSSPVTKSFNRGEC |  |  |  | no binding | 
